According to paper PMC10514974, “The NAC transcription factor MdNAC4 positively regulates nitrogen deficiency-induced leaf senescence by enhancing ABA biosynthesis in apple”:

Assays:
Settings in all cases: protein: recombinant; tags: GST (pGEX4T-1); label: biotin; blunt
MdNAC4-GST [1] = biological target: T1, MdNAC4-GST (apple, UniProt B6DXL4 1-350); experiment: EMSA; unlabeled competitor 5x, 50x, 100x progressively abolished binding; LightShift binding buffer, 30 min at 24 °C in the dark; biotin-labeled probes; salt and pH not stated
T1 sequence: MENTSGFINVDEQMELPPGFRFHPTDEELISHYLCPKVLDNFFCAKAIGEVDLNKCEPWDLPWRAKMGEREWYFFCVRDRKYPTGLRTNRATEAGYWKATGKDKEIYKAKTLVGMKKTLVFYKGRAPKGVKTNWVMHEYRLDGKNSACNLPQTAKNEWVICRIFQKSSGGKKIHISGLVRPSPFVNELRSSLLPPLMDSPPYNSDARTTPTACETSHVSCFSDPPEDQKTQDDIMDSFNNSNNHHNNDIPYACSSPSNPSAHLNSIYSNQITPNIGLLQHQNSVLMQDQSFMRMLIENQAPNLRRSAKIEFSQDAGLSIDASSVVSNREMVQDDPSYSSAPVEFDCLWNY

MdNAC4-GST [2] = biological target: T1, MdNAC4-GST; experiment: EMSA; LightShift binding buffer, 30 min at 24 °C in the dark; biotin-labeled probes; salt and pH not stated
MdNAC4-GST [3] = biological target: T1, MdNAC4-GST; experiment: EMSA; unlabeled competitor 5x, 50x, 100x abolished binding; LightShift binding buffer, 30 min at 24 °C in the dark; biotin-labeled probes; salt and pH not stated

B1: MdNCED2 promoter probe P4 (ABRE) (dsDNA)
DNA 1: TAAATCCACCACGTGGTCTCTCATG
DNA 2: CATGAGAGACCACGTGGTGGATTTA
MdNAC4-GST [1]
  binding result: binds

B2: MdNCED2 mutant probe (dsDNA)
DNA 1: TAAATCCACGACGGGGTCTCTCATG
DNA 2: CATGAGAGACCCCGTCGTGGATTTA
MdNAC4-GST [2]
  binding result: no binding

B3: MdSAG39 promoter probe P2 (ABRE) (dsDNA)
DNA 1: TTTTGTAAGGCACGTACCACGCTGA
DNA 2: TCAGCGTGGTACGTGCCTTACAAAA
MdNAC4-GST [3]
  binding result: binds

B4: MdSAG39 mutant probe (dsDNA)
DNA 1: TTTTGTAAGGGACGGACCACGCTGA
DNA 2: TCAGCGTGGTCCGTCCCTTACAAAA
MdNAC4-GST [2]
  binding result: no binding
